Assay results published in the nanobody polyreactivity screen of Harvey et al. (2022).

Assay: yeast display, Sf9 membrane polyspecificity reagent, FACS + sequencing; frameworks hold sequencing errors
How it was run: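 After 36–48 hours of galactose induction, yeast (Saccharomyces cerevisiae BJ5465) displaying a synthetic nanobody library were stained at 4 °C for 1 hour with 10% biotinylated, detergent-solubilized Sf9 membrane reagent. Streptavidin microbeads enriched the stained cells before FACS sorting into low and high (top ~1%) gates on anti-HA and streptavidin fluorescence. Each clone's polyreactivity label reflects its gate of origin.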

Sequence	polyreactivity (PSR sort gate)
QVQLVESGGGLVQAGGSLRLSCAASGSIAGNAMGWYRQARGKEREMVAAITFRGSGTYYADSVKGRFTISRDNAKKTVYLQMNSLKPEDTAVYYCNAYRRGLSGYGYWGQGTQVTVSS	high polyreactivity
QVQLVESGGGLVQAGGSLRLSCAASGLTFQSYAMGWYRQAPGKEMELVATIYNGSSTYYAVSVKGRFTISRDNAKNTDYLQMNSLKPEDTAVYYCAKDYYYSRNALYGHDYWGQVTQVTVSS	low polyreactivity
QLQLVESGGGLVQAGGSLRLSCAASGRTFQLYAMGWYRQAPGKERELVAAISYSGGSTYYADSVKGRFTISRDNAKNSVYLQTNSLKPEDTAVYYCAARPRSTRPSYYYRSAGYYWGQGTQVTLSS	high polyreactivity
QVQLVESGGCLVQAGGSLRLSCAASGGIFSYNAMGWYRQAPGKERELVAAISYSGGNTYYADSVKGRFTISRDNAKNTVYLQMNSLKPEDTAVYYCAATGYYNWYTSGYWGQGTQVTVSS	high polyreactivity
QVQLVESGGGLVQAGGTLRLSCAASGRTFNTYAMGWYRLAPGKERELVAAITVPGGSTYYADSVKGRFTLSRDNAKNTVYLQMNSLKPADTAVYYCAAERPPDGYLVVGYVSTQYYYWGQGTQVTVSS	low polyreactivity
QVQLVESGGGLVQAGGSLRISCAASGSTSSRNAMGWYRQAPGKERELVAAITSGTRTYYADSVKGRFTISRDNAKNSVYLQRNSLKPEDTAVYYCARGRVSRYTKTDYDYWGQGSQVTVSS	high polyreactivity
QVQLVESGGGLVQAGGSLRLSCAASGRIFAWNAMGCYRQAPGKERELVAGISGSGGSTYYADSVKGRFTISRDNAKNTVYFQMNSLKPEDTAVYYCAARRRYDGWGGYWGQGTQVTVSS	high polyreactivity
QVQLVESGGGLVQAGGSLRLSCAASGRTFASNAMGWYRQAPGKERELVAAISVTGGRTYYADSVKGRFTISRDNAKNTVYLQMNRLKPEDTAVYYCAKDLTLFSGPFPEFGYWGQGTQVTVSS	low polyreactivity
QVQLVESGGGLVQAGGSLRLSFAASGFTFYRYAMGWYRQAPGKERELVAAISGDGGSTYYAASVKGRFTISRDNAKNTVYLQMNSLKPEDTAVYYCNKYFWQYLYGYWGQGTQVTVSS	high polyreactivity
QVHLVESWGGLVQAGGSLRLSCAASGSTFGYNAMGWYRQAPGKERELVAAITSGGSTNYADSVKGRFTISRDNAKNTVYLQMNSLKPEDTAVYYCAKLAADRRSYYWGQGTQVTVSS	high polyreactivity
QVQLVESGGGLVQAGGSLRLSCAASGSTFQYNAKGWYRQAPGKERELVAAISSGGSTYYADSVKGRFTISRDNAKNTVYLQMNSLKPEDTAVYYCNALSRRQNWAGEVYYWGQGTQVTVSS	high polyreactivity
QVQLVESGGGLVHAGGSLRLSCAASGRIFPSYAMGWYRQAPGKERELVAAISYSGASTYYADSVKGRFTISRDNAKNTVYLQMNSLKPEDTAVYYCATDHESVRVLVSSTSDYDYWGQGTQVTVSS	low polyreactivity
QVQLVESGGGLVQAGGSLRLSCSASGRFYVINYMGRYRQAPGKERELVAANTWGSSTYADSEKGRFTISRDNAKITVYFQMNSLKQEDTAVYYCSRDVYPSTWEYDYWGQGTQVTVSS	low polyreactivity
QVQLVESGGGLVQAGGRLRLSCAASGSIFIGYAMGWYRQAPGKERELVATISGSGGSTYYADSEKGRFTISRDNAKNTVSLQMNSLKPEDSAVYYCAAVSVSSWYDYWGQGTQVTVSS	low polyreactivity
QVQLVESGGGLVQAGGSLRLSCAASGITFTGYAMGWYRQAPGKERELVAAITSGGGRTYYADSVKGRFTISRDNAKNTVYLQMNSLKPEDTAVYYCAFRYHGYDYWGQGTQVTVSS	high polyreactivity
QVQLVESGGGLVQAGGSLRLSCAASGRTFDFYAMGWYRQAPGKERELVASIDWDGGSTYYADSVKGRFTISRDNAKNTVYLQMNSLKPEDTAVYYCAKDGQKFTSSLYDYWGQGTQVTVSS	low polyreactivity
QVPLVEKGGGLVQAGGSLRLSCAASGFTIGYYAMGWYRQAPGKERELVAASTWRGDTTYYADSVKGRFTISRDNAKNTVYLQMNSLKPEDTAVYYCAAEYEVYFDWSYYYWGQGTQVTVSS	high polyreactivity
QVQLVESGGGLVQAGGSLRLSCAASGSTFAGNAMGWYRQAPGKERELVAAISSSGAGTYYADSVKGRFTISRDNAKNTVYLQMNSLKPEVTAVYYCNVGSRALRRRVRSVSFDYWGQGTQVTVSS	low polyreactivity
QVQLVESGGGLVQAGGSLRLSCAASGRTFYVYNMGCYRQAPGKERELVAGISYSGGSTYYADSVKGRFTISRDNAKNTVYLQMNSLKPEDTAVYYSNAELYFPYFDGKTRLGGYWGLGTQVTVSS	low polyreactivity
QVQLVESGGGLVQAGGSLRLSCAASGSTFRPYSMGWYRQAPGKEREFVAAINYRGGSTNYADSVKGRFTISRDNAKNTVYLQMNSLKPEDTAVYYCAATYYLRLRRPYWQGFNYWGQGTQVTVSS	high polyreactivity
QVQLVESGGGLVQAGGSLRLSCAASGLTFYANAMGWYRQAPGKERELVAAITSSGGSTYYADSVKGRFTISRDNAKNTVYLQMNSLKPDDTAVYYCNAYFRPRYGYWGQGTQVTVSS	high polyreactivity
QVQLVESGGGLVQAGGSLRLSCAASGSIFKGYAMGWYRQAPGKERELVAAISGGGGSTYYADSVKGRFTISRDNAKNTVYLQMNSLKPEDTAVYYCNRDDSWSTTGAYDYWGQGTQVTVSS	low polyreactivity

Sequence	polyreactivity (PSR sort gate)
QVQLVESGGGLVQAGGSLRLSSAASGFIFYQYAMGWYRQAPGKERELVAAISKSGGNTYYADSVKGRFTISRDNAKNTVYLQMNSLKPEDSAVYYCAADRGQRGMYYWGQGTQVSVSS	high polyreactivity
QVQLVESGGGLVQAGGSLRLSCAASGSNFNRYAMGWYRQAPGKERELVAAITSTGGTNYADSVKGRFTISLDNAKNSVYLQMNSLKPEDTAVYYCAKRWLRWRSNYWGQVTQVTVSS	high polyreactivity
QVQRVESGGGLVQAGGSLRLSCAASGFIFYDYMGWYRQAPGKERVLVAVISYSGSSTYYADSVKGRFTISRDNAKNTVYLQMNSLKPEDNAVYYCAARKVNGWDYDYWGQGTQVTVSS	low polyreactivity
QVQLVESGGGLVQAGGSLRLSCAASGRIFKDYAMGLYRQAPGKERELVAGIDYRGGSTYYADSVKGRFTISRDNAKNTVYLQMNSLKPEDNAVYYCAADSLISIYDYWGQGTQVTVSS	low polyreactivity
QVQLVESGGGLVQAGGSLRLSCAASGSIFPGYAMGWYRQAPGNERELVAAISSGGNTHYADSVKGRFTISRDNAKNTVYLQMNSLKPEDTAVYYCAASYDYTYYWGQGTQVTVSS	low polyreactivity
QVQLVESGGGLVQAGGSLRLSCAASGSTFYKYAMGWYRQAPGQVREVVASISSSGGSTYADSVKGRFTISRDNAKNTVYLQMNSLKPEDTAVYYCARVRWIVPWSGPTDDYWGQGTQVTVSS	low polyreactivity
QVQLVESGGGLVQAGGRLRLSCAASGSTFRRNAMGWYRQAPGKERELVATISPGARTNYADSVKGRFTISRDNAKNTVYLQMNSLKPEDTAVYYCNAEFTLLYPLYDYWGQGTQVTLSS	low polyreactivity
QVQLVESGGGLVQAGGSLRLSCAASRSIFDLYAMGWYRQAPGKEREFVAAITWRGSSTYYADSVKGRFTISRDNAKNNVYLQMNSLKPEDTAVYYCAATHNQVVARYAFIYWGQGTQVTVSS	high polyreactivity
QVQLVESGGGLVQAGGSLRLICAASGSIFGYYAMGWYRQAPGKERELVAAISYSGSRTYYADSVKGRFTISRDNAKNTVYLQMNSLKPEDTAVYYCAARGSRLYSSWRGDYWGQGTQVTVSS	high polyreactivity
QVQLVESGGGLVQAGGSLRLSCAASGSTFPYYAMGWYRQAPGKERELVATITTSGVSTYYADSVKGRFTISRDNAKNTVYLQMNSLKPEDTAVYYCAADPPGFTQYGYWGQGTQVTVSS	low polyreactivity
QVQPVESGGGLVQAGGSLRLSCAASGSTFTVNAMRWYRQPPGNERELVAAITFSGTSTYYADSVKGRFTISRDNAKNTVYLQMNSLKPEDTAVYYCNAVVWGYSKSLGDTRTKYEYWGQVTQVTVSS	high polyreactivity
QVQLEETRGGLVQAGGSLRLSCAASGLFFGTYAMGWYRQPPGKEWELVAGITSSGGTTYYADSVKGRFTISRDNAKNTVYLQMNSLKPEDTAVYYCNARAVQSRYGYYYWGQGTQVTVSS	low polyreactivity
QVQLVESGGGLVQAGGSLRLSCAASGSTFYQYAMGWYRQAPGKERELVAAISKSGGSTYYADSVKGRFTISRDNAKNTVYLQMNSLKPEDTAVYYCATRWIKGRNMDYWGQGTQVTVSS	high polyreactivity
QVQLVESGGGLVQAGGRLRLSCAASGLTFKSYTMGLYRQAPGKERELVATISGSGTRTYYADSVKGRYTISRDNAKNTVFLQMNSLKPEDTAVYYCARVILYNNYFRYSGYRYDYWGQGTQGTVSS	high polyreactivity
QVQIVESGGGLVQAGGSLRLSCAASGSIFVQNAMGWYRQAPGKERELVAVINSGDSTNYADSVKGRFTISRDNAKNTVYLQMNSLKPEDTAVYYCAVDDVSYYYLRAYNYELSWYGSGLDYWGQGTQVTVSS	low polyreactivity
QVQLVESGGGLVQAGGSLRLSCAASGRIFDDNAMGWYRQAPGKETELVAAISSSGGSTYYADSVKGRFTISRDNAKNSVYLQMNSLKPEDTAVYYCAKAPGQDTPYPYGYWGQGTQVTVSS	high polyreactivity
QVQLVESGGGLVQAGGSLRLSCAASGSTFFGYAMGWYRQAPGKERELVATISSGDSTNYADSVKGRFTISRDNAKNTVYLQMNSLKPEDTAVYYCAAQGGDGVLALYYYWGQGTQVTVSS	low polyreactivity
QVQLVESGGRLVQAGGSLRLSCAASGISFNYYAMGWYRQAPGKEREMVAGITSGGSTYYADSVKGRFTISRDNAKNTVYLQMNSLKTEDTAVYYCATRVRDGSQTPYRRGHSYDYWGQGTQVTVSS	high polyreactivity
QVQLVESGGGLVQAGGSLRLSCAASGSIFWSYAMGWYIQAPGTERELVAAITTDGGTNYADSVKGRFTISLDNAKNTVYLLMKSLKPDDTAVYYCAGDTDPNPQIDYTLTMDYWGQGTEVTVSS	low polyreactivity
QVQLVESGGGLVQAGGSLRLSCAASGSTFDYYTMGWYRQAPGKERELVAAISSSGGSTYYADSVTGRFTISRDNAKNTVYLQMNSLKPEDTAVYDCAARGYHYSYLRGDTGYYYWGQGTQVTVSS	low polyreactivity
QVQLVESGGGLVQAGGSLRLSCAASGRNFAPNAMGWYRQAPGKERELVAAISGSGTSTYYADSVKGRFTISRDNAKNTVYLQMNSLKPEDTAVYYCAKSARGRRGGFDYWGQGTQVTVSS	low polyreactivity
